Experimental data from patent publication US20230137562A1, “TAU AGGREGATION INHIBITORS” (priority 2017, published 2023).
Several values for one entry are separate records, joined by “and”; a condition that tells them apart may be missing. Identical values can stand only once. Square brackets hold non-standard residues; d marks the D form. Ends that are not written are not given here. NMeI = CC[C@H](C)[C@H](NC)C(=O)O; hArg = N=C(N)NCCCC[C@H](N)C(=O)O; Orn = NCCC[C@H](N)C(=O)O

T1: Ac-VQIINK-NH2
T1 peptide: Ac-VQIINK-NH2


Molecular target: T1, Ac-VQIINK-NH2
Assay: cell-based or functional assay

| Binder | IC50 (µM), VQIINK Inhibition (ThT) |
| --- | --- |
| RIWLWYR | 4.27 µM and 5.47 µM |
| RWWIRIRYW | 2.76 µM |
| WKVQVRLW | 1.35 µM |
| WIRYWIRW | 1.78 µM |
| IRWRIRW | 9.77 µM |
| RIWIRYW | 4.87 µM |
| IRIWVW | 2.43 µM |
| WRIRIWYW | 2.43 µM |
| RIWLRVW | 4.09 µM |
| IWIRYWWR | 2.01 µM |
| IRLIVW | 3.01 µM |
| RIRIWLW | 1.93 µM |
| WIRIRYW | 6.02 µM |
| FRIKLRW | 2.38 µM |
| IRLWLW | 1.27 µM |
| WRIWLWYR | 2.7 µM |
| WRIWIRYR | 3.33 µM |
| WRIWIRYW | 1.89 µM |
| IRIRWRW | 4.86 µM |
| IWIRYWRW | 2.15 µM |
| WIRLYWRW | 1.86 µM |
| WRIWIREW | 3.96 µM |
| WRLRLRW | 2.22 µM |
| RIRIWIW | 2.38 µM |
| LRIWIRYL | 1.74 µM |

The binders below were run against His-Tau40P301L Tau (UniProt P10636-8 1-441) (assay: cell-based or functional assay).
His-Tau40P301L Tau, sequence (P10636 other isoform, or with tags, fused parts or gaps limits assumed): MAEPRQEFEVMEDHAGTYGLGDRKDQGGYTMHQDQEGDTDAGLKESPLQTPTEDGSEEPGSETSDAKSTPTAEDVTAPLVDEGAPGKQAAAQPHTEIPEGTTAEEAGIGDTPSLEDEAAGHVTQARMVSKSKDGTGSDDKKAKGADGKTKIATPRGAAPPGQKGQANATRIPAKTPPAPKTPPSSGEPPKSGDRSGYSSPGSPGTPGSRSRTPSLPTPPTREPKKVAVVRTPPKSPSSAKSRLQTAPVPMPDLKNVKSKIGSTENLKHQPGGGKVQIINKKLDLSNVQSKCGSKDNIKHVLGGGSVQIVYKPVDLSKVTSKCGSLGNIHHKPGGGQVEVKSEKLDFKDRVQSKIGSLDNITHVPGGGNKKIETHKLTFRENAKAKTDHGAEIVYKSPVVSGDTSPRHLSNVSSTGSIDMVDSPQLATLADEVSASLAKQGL

| Binder | IC50 (µM), Tau40 assay (ThT) |
| --- | --- |
| RIWLWYR | 2.73 µM |
| WRIEIRW | 4.84 µM |
| RWWIRIRYW | 2.54 µM |
| WKVQVRLW | 2.4 µM and 2.31 µM |
| WR[NMeI]RIRW [WR(NMe)IRIRW] | 1.48 µM |
| RIRRWIW | 4.55 µM |
| WIRYWIRW | 2.42 µM |
| IRWRIRW | 2.82 µM |
| ILRYWH | 2.49 µM |
| RIWIRYW | 2.42 µM |
| RIWIRYWW | 2.28 µM |
| WRIRIWYW | 0.85 µM |
| RIRIWYW | 5.51 µM |
| RIWIYWFR | 0.55 µM |
| WRILIRYW | 14.6 µM |
| FRIRIRF | 6.01 µM |
| IWIRYWWR | 2.44 µM |
| WRVWGWVRW | 1.81 µM and 1.85 µM |
| WRIWARYW | 2.95 µM |
| WWIRIRYWH | 2.16 µM and 2.3 µM |
| WRIRLRGW | 1.74 µM and 1.91 µM |

| Binder | IC50 (µM), Tau40 assay (ThT) |
| --- | --- |
| WIRIRYW | 2.6 µM |
| WRIAIRW | 4.01 µM |
| LWWIRIRYW | 1.59 µM and 1.8 µM |
| RIRLWYW | 8.01 µM |
| WRIEIRYW | 12 µM |
| FRIKLRW | 2.6 µM |
| WRLWIHWW | 2.96 µM |
| RIRIRIW | 2.89 µM |
| HWKIIWYR | 2.39 µM |
| RIRIWKW | 5.71 µM |
| WRAWIRYW | 2.59 µM |
| WRIWIRYR | 2.64 µM |
| W[hArg]I[hArg]I[hArg]W [W(hR)I(hR)I(hR)W] | 6.13 µM |
| FRIWIRYW | 2.12 µM |
| WRIWLYWR | 1.69 µM |
| IRIRWRW | 2.78 µM |
| IWIRYWRW | 2.73 µM |
| RIRIWAW | 8.38 µM |
| WIRLYWRW | 2.42 µM and 2.38 µM |
| WRIWIREW | 2.76 µM |
| HWWIRIRYW | 3.11 µM |

| Binder | IC50 (µM), Tau40 assay (ThT) |
| --- | --- |
| WRINIRYW | 7.45 µM |
| RIRIWRW | 2.39 µM |
| WRLRLRW | 0.23 µM |
| RIRLYIW | 2.12 µM |
| LFYLRLR | 7.13 µM |
| W[Orn]I[Orn]I[Orn]W [WOIOIOW] | 1.17 µM |
| RIRIWIW | 0.84 µM and 1.38 µM |
| IRIWLW | 4.08 µM |
| WRIWIRYL | 4.09 µM |
| WRIFIRYW | 7.67 µM |
| YKLHIRHW | 5.72 µM |
| LRIWIRYL | 2.66 µM |
| RIRLYWW | 1.74 µM |
| LRIWIRYW | 1.71 µM |
| WRIWIRAW | 3.54 µM |
| WYRVRGRVW | 6.4 µM and 6.5 µM |
| RIRAWIW | 14.6 µM |
| YRIRLRY | 1.08 µM |
| WY[Orn]L[Orn]I[Orn]W [WYOLOIOW] | 5.2 µM |
| WEIRIRW | 11.1 µM |
